Reference: patent publication EP3758732B1 (Leidos, Inc., dated 2024)

Columns and labels:
[1] = target: human PD-1 on Jurkat cells (human, UniProt Q15116 25-288); experiment: cell-based or functional assay
[2] = target: T1, soluble recombinant human PD-1 receptor (human, UniProt Q15116 25-167, limits assumed); experiment: clonal phage ELISA, peptide on phage, wells coated with PD-1
T1 construct: also called human PD-1 receptors
T1 sequence (Q15116 25-167 limits assumed): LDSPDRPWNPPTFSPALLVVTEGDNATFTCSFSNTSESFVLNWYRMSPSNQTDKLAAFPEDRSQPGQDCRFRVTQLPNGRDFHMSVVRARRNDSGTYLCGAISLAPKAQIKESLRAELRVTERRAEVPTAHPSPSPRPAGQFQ

Chain of human PD-1 on Jurkat cells (Q15116 25-288): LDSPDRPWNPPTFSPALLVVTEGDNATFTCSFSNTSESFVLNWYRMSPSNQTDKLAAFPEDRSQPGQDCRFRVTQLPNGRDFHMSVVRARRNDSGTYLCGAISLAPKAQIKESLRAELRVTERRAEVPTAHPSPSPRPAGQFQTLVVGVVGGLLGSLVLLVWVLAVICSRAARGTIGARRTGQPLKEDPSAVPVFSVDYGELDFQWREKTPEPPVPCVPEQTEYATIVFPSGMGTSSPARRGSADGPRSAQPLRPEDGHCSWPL

B1: QP20 (peptide)
peptide: QTRTVPMPKIHHPPWQNVVP
notes: Found by phage display; also called peptide QP20
Q: How did the “peak-fold inhibition (luciferase reporter)” value [1] turn out when B1 was run?
A: ~1.5 fold

Q: And the coated signal [2]?
A: 0.851

B2: WQ20 (peptide)
peptide: WNLPASFHNHHIRPHEHEWIQ
notes: also called WQ-21; peptide WQ20
Q: B2 was tested. Which “peak-fold inhibition (luciferase reporter)” value [1] did it give?
A: ~1.5 fold

Q: What about the coated signal [2] of the same binder?
A: 0.275

B3: HD20 (peptide)
peptide: HHHQVYQVRSHWTGMHSGHD
notes: Found by phage display; also called peptide HD20
Q: Which results are given for B3?
A: peak-fold inhibition (luciferase reporter) [1]: ~1.5 fold; coated signal [2]: 0.281

B4: SQ20 (peptide)
peptide: SSYHHFKMPELHFGKNTFHQ
notes: Found by phage display; also called peptide SQ20
Q: Which results are given for B4?
A: peak-fold inhibition (luciferase reporter) [1]: ~1.5 fold; coated signal [2]: 0.284
